Data as given in US6949349.
Positions of bridges follow the written chain, without caps; N, C: chain ends. No end group written: not given here.

Key:
[1] = target: T1, recombinant human IGFBP-3 (human, UniProt P17936 28-291); assay: BIAcore competition: peptide dilutions with 20 nM IGFBP-3 over immobilized IGF-II
T1 construct: also called rhIGFBP-3
Description: IGF-II was immobilized on a dextran chip for inhibition assays using a BIAcore™ 2000 surface-plasmon-resonance device (BIAcore, Inc., Piscataway, N.J.) to measure free binding protein. IGF-II was biotinylated as described above, and injected over a chip to which streptavidin had been coupled (BIAcore, Inc.) to give approximately 1500 RU of immobilized IGF-II. […] After incubation for ≧1 hour at room temperature, an aliquot of 20 µl was injected at a flow rate of 20 µl/min over the IGF-II chip.

IGFBP-1 [2] = target: T2, IGFBP-1 (human, UniProt P08833 26-259); assay: BIAcore competition: peptide inhibits IGFBP-1 binding to IGF-I; ratio against bp1-14
T2 construct: Biotinylated in the ELISA assays; also called rhIGFBP-1
T2 sequence (looked up): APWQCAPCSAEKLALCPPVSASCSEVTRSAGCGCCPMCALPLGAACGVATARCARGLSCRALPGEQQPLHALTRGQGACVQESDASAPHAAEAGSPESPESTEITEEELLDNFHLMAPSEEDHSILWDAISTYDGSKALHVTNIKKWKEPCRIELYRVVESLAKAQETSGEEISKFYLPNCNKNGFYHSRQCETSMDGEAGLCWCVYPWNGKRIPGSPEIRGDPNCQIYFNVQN

IGFBP-1 [3] = target: T2, IGFBP-1; assay: BIAcore competition: peptide inhibits IGFBP-1 binding to IGF-I; ratio against bp1-16
[4] = target: T3, recombinant human IGFBP-1 (human, UniProt P08833 26-259); assay: cell-based or functional assay
T3 sequence (looked up): T2 sequence (looked up)

[5] = target: T3, recombinant human IGFBP-1; assay: ELISA: peptide dilutions with 20 nM biotinylated IGFBP-1 on IGF-I coated plate
Description: (§1) The peptide/IGFBP mix was then removed and the plate was washed ten times with PBS buffer containing 0.05% TWEEN-20™ surfactant.

IGFBP-3 = target: T4, IGFBP-3 (human, UniProt P17936 28-291); assay: BIAcore competition: peptide inhibits IGFBP-3 binding to IGF-I; the reference itself
T4 construct: also called rhIGFBP-3

[6] = target: T3, recombinant human IGFBP-1; assay: phage ELISA titration on IGFBP-1 plate with IGF-I (FIG. 28)
Description: (§2) The plates were then washed ten times, as above, and a solution of rabbit anti-phage antibody mixed with a goat-anti-rabbit conjugate of horse radish peroxidase was added. After an incubation of 1 hour at room temperature, the plates were developed with a chromogenic substrate, o-phenylenediamine (Sigma). The reaction was stopped with addition of ½ volume of 2.5 M H_2SO_4. Optical density at 490 nm was measured on a spectrophotometric plate reader.

IGFBP-1 [7] = target: T2, IGFBP-1; assay: ELISA competition: peptide inhibits IGFBP-1 binding to IGF-I; ratio to bp1-01 (wt)
[8] = target: T1, recombinant human IGFBP-3; assay: cell-based or functional assay
IGFBP-1 [9] = target: T2, IGFBP-1; assay: BIAcore competition: peptide inhibits IGFBP-1 binding to IGF-I; the reference bp1-16 itself
IGFBP-1 [10] = target: T2, IGFBP-1; assay: BIAcore competition (starred): peptide inhibits IGFBP-1 binding to IGF-I; ratio to bp1-01 (wt)
[11] = target: T1, recombinant human IGFBP-3; assay: phage ELISA on IGFBP-3 plate, 50-fold phage dilution, with/without 100 nM IGF-I as competitor (FIG. 29)
Description: as §2
In each case, the phagemid clone was grown from a single colony overnight at 37° C. in a culture volume of 5 ml. The phage particles were precipitated and resuspended in 0.5 ml of PBS buffer.

IGFBP-1 [12] = target: T2, IGFBP-1; assay: BIAcore competition: peptide inhibits IGFBP-1 binding to IGF-II; position 3 is Ala in the wt
IGFBP-1 [13] = target: T2, IGFBP-1; assay: biotinylated-IGFBP-1 ELISA: peptide inhibits IGFBP-1 binding to IGF-I; the reference itself
Description: as §1

IGFBP-1 [14] = target: T2, IGFBP-1; assay: BIAcore competition: peptide inhibits IGFBP-1 binding to IGF-I; position 3 is Ala in the wt
IGFBP-1 [15] = target: T2, IGFBP-1; assay: BIAcore competition: peptide inhibits IGFBP-1 binding to IGF-II; the reference itself
IGFBP-1 [16] = target: T2, IGFBP-1; assay: ELISA competition: peptide inhibits IGFBP-1 binding to IGF-I; the reference itself
IGFBP-1 [17] = target: T2, IGFBP-1; assay: BIAcore competition: peptide inhibits IGFBP-1 binding to IGF-I; the reference itself
IGFBP-1 [18] = target: T2, IGFBP-1; assay: ELISA plate assay: peptide inhibits IGFBP-1 binding to IGF-I; the reference itself
IGFBP-1 [19] = target: T2, IGFBP-1; assay: ELISA plate assay (starred peptide): peptide inhibits IGFBP-1 binding to IGF-I; ratio against bp1-14
IGFBP-1 [20] = target: T2, IGFBP-1; assay: ELISA plate assay (starred peptide): peptide inhibits IGFBP-1 binding to IGF-I; ratio against bp1-16

T1 sequence (P17936 28-291 limits assumed): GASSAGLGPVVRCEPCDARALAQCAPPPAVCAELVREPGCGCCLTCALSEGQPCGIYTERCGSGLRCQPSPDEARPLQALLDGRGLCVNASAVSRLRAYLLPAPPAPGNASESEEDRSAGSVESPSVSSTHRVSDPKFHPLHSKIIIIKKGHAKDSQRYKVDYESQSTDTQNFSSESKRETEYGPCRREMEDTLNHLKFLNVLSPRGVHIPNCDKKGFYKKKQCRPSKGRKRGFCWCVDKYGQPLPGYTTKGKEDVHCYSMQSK
T4 sequence (P17936 28-291 limits assumed): as above

B1: BP3-4D3.11 (peptide)
peptide: VAWEVCWDRHDQGYICTTDS
modifications: disulfide 6-16
notes: Synthetic peptide corresponding to phage clone 4D3.11 (g8) and 3Bi.1 (g3); also called BP14; BP3-4D3.11 (BP14)
[1]
  IC50: 1 µM

## SEVGCRAGPLQWLCEKYFSTY-NH2 (disulfide 5-14 (inferred), g3 bp1-01 selectant) [bp1-21A]
IGFBP-1 [2]
  IC50 (114)/IC50 (mut): 3.2 ratio
IGFBP-1 [3]
  IC50 (116)/IC50 (mut): 15 ratio

B2: bp1-01 (peptide)
peptide: CRAGPLQWLCEKYFG-NH2
modifications: disulfide 1-10; N-terminus assumed
SMILES: CC(C)C[C@@H]1NC(=O)[C@H](Cc2c[nH]c3ccccc23)NC(=O)[C@H](CCC(N)=O)NC(=O)[C@H](CC(C)C)NC(=O)[C@@H]2CCCN2C(=O)CNC(=O)[C@H](C)NC(=O)[C@H](CCCNC(=N)N)NC(=O)[C@@H](N)CSSC[C@@H](C(=O)N[C@@H](CCC(=O)O)C(=O)N[C@@H](CCCCN)C(=O)N[C@@H](Cc2ccc(O)cc2)C(=O)N[C@@H](Cc2ccccc2)C(=O)NCC(N)=O)NC1=O
notes: also called bp1-01 (bp3)
[4]
  IC50, KIRA assay (peptide plus IGF-I plus IGFBP-1): 0.397 µM
[5]
  IC50: 0.18 µM

## SEEVCWPVAEWYLCNMWG (disulfide 5-14) [bp3-01-ox]
IGFBP-3
  IC50 (mut)/IC50 (wt): 1 ratio

B3: peptide-phage clone HL-1 (g8 display) (peptide, not shown: large carriers)
chain: SEVGCRAGPLQWLCEKYF
modifications: not fully specified (C-terminus, bridges); cysteine pairing not given here; also: polyvalent display on phage particle
notes: Tested as a whole phage particle with polyvalent display; also called g8-phage peptide bp1-01
[6]
  binding result: binds

## CRAGPLQWLCEKAA [bp1-18]
IGFBP-1 [7]
  IC50 (mut)/IC50 (wt): 148 ratio

## SEEVCWPVAEWYLCN (disulfide 5-14) [BP15]
[8]
  IC50, KIRA assay (peptide with IGFBP-3:IGF-1 at a 3:1 ratio): 95 µM

## CRAGPLQWLCEKYF-NH2 (disulfide 1-10 (inferred), bp1-01 lacking the C-terminal Gly) [bp1-16]
IGFBP-1 [9]
  IC50 (116)/IC50 (mut): 1 ratio
IGFBP-1 [2]
  IC50 (114)/IC50 (mut): 0.21 ratio

## CRKGPLQWLCELYF (g8 bp1-01 selectant) [bp1-10]
IGFBP-1 [10]
  IC50 (mut)/IC50 (wt): 1.1 ratio

## CRKGPLQWLCEKYF (g8 bp1-01 selectant) [bp1-11]
IGFBP-1 [10]
  IC50 (mut)/IC50 (wt): 1.9 ratio

## CKEGPLQWLCEKYF (g8 bp1-01 selectant) [bp1-12]
IGFBP-1 [10]
  IC50 (mut)/IC50 (wt): 2.9 ratio

## CKEGPLLWLCEKYF (g8 bp1-01 selectant) [bp1-13]
IGFBP-1 [10]
  IC50 (mut)/IC50 (wt): 2.5 ratio

B4: bp1-02 (peptide)
peptide: SEVGCRAGPLQWLCEKYFG-NH2
modifications: disulfide 5-14; N-terminus assumed
SMILES: CC(C)C[C@@H]1NC(=O)[C@H](Cc2c[nH]c3ccccc23)NC(=O)[C@H](CCC(N)=O)NC(=O)[C@H](CC(C)C)NC(=O)[C@@H]2CCCN2C(=O)CNC(=O)[C@H](C)NC(=O)[C@H](CCCNC(=N)N)NC(=O)[C@@H](NC(=O)CNC(=O)[C@@H](NC(=O)[C@H](CCC(=O)O)NC(=O)[C@@H](N)CO)C(C)C)CSSC[C@@H](C(=O)N[C@@H](CCC(=O)O)C(=O)N[C@@H](CCCCN)C(=O)N[C@@H](Cc2ccc(O)cc2)C(=O)N[C@@H](Cc2ccccc2)C(=O)NCC(N)=O)NC1=O
notes: 19-mer variant of bp1-01; also called bp1-02 (bp3)
[4]
  IC50, KIRA assay (peptide plus IGF-I plus IGFBP-1): 0.187 µM
[5]
  IC50: 0.05 µM

## CRAGPLQWLCEKYFSTY-NH2 (disulfide 1-10 (inferred), g3 bp1-01 selectant) [bp1-21B]
IGFBP-1 [2]
  IC50 (114)/IC50 (mut): 0.67 ratio
IGFBP-1 [3]
  IC50 (116)/IC50 (mut): 3.1 ratio

B5: peptide-phage clone 4D3.9 (g8 display) (peptide, not shown: large carriers)
chain: ETVANCDCYMDLCLCYGSDR
modifications: cysteine pairing not given here; also: C-terminal fusion to linker and M13 g8p, phage-displayed
notes: Tested as a whole phage particle with polyvalent display
[11]
  percent inhibition of phage binding by IGF-I: > 40%

B6: bp1-01 (peptide)
peptide: CRAGPLQWLCEKYFG-NH2
modifications: disulfide 1-10; N-terminus assumed
SMILES: CC(C)C[C@@H]1NC(=O)[C@H](Cc2c[nH]c3ccccc23)NC(=O)[C@H](CCC(N)=O)NC(=O)[C@H](CC(C)C)NC(=O)[C@@H]2CCCN2C(=O)CNC(=O)[C@H](C)NC(=O)[C@H](CCCNC(=N)N)NC(=O)[C@@H](N)CSSC[C@@H](C(=O)N[C@@H](CCC(=O)O)C(=O)N[C@@H](CCCCN)C(=O)N[C@@H](Cc2ccc(O)cc2)C(=O)N[C@@H](Cc2ccccc2)C(=O)NCC(N)=O)NC1=O
notes: Synthetic 15-mer; also called (wt); A3
IGFBP-1 [12]
  IC50 (mut)/IC50 (wt): 1 ratio
IGFBP-1 [13]
  IC50 (mut)/IC50 (wt): 1 ratio
IGFBP-1 [14]
  IC50 (mut)/IC50 (wt): 1 ratio
IGFBP-1 [15]
  IC50 (mut)/IC50 (wt): 1 ratio
IGFBP-1 [16]
  IC50 (mut)/IC50 (wt): 1 ratio
IGFBP-1 [17]
  IC50 (mut)/IC50 (wt): 1 ratio
IGFBP-1 [18]
  IC50 (mut)/IC50 (wt): 1 ratio

## EARVCRAGPLQWLCEKYF-NH2 (disulfide 5-14 (inferred), g3 bp1-01 selectant) [bp1-20]
IGFBP-1 [2]
  IC50 (114)/IC50 (mut): 2.6 ratio
IGFBP-1 [3]
  IC50 (116)/IC50 (mut): 12 ratio

## SEMVCRAGPLQWLCEIYF-NH2 (disulfide 5-14 (inferred), g3 bp1-01 selectant) [bp1-19]
IGFBP-1 [19]
  IC50 (114)/IC50 (mut): 2.1 ratio
IGFBP-1 [20]
  IC50 (116)/IC50 (mut): 9.9 ratio

B7: peptide-phage clone 4C3.2 (g8 display) (peptide, not shown: large carriers)
chain: ELDGWVCIKVGEQNLCYLAE
modifications: not fully specified (C-terminus, bridges); cysteine pairing not given here; also: polyvalent display on phage particle
notes: as for B5
[11]
  percent inhibition of phage binding by IGF-I: > 40%

B8: peptide-phage clone 4D3.8 (g8 display) (peptide, not shown: large carriers)
chain: SEEVCWPVAEWYLCNILGP
modifications: not fully specified (C-terminus, bridges); cysteine pairing not given here; also: polyvalent display on phage particle
notes: as for B5
[11]
  percent inhibition of phage binding by IGF-I: > 40%

B9: peptide-phage clone 4D3.12 (g8 display) (peptide, not shown: large carriers)
chain: AEWAECWIAGDQLLCVGKDN
modifications: not fully specified (C-terminus, bridges); cysteine pairing not given here; also: polyvalent display on phage particle
notes: as for B5
[11]
  percent inhibition of phage binding by IGF-I: > 40%
